Measurements from the supplement of paper PMC9112550, “Optimization of the antimicrobial peptide Bac7 by deep mutational scanning” (BMC Biology, 2022).

Tested on: Escherichia coli TOP10
Experiment: shrunken log2 fold change of peptide-encoding DNA abundance (4.5 h post-induction vs induction); higher = less antimicrobial activity (less host growth inhibition)
Conditions: time post-induction: 4.5 h; library: site-saturation at positions 5, 18, 19, 20
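Also: peptides expressed intracellularly from a pBAD plasmid library in pooled LB shake-flask culture, induced with 0.3% L-arabinose, DNA abundance read by NGS, three biological replicates, DESeq2 with apeglm shrinkage.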

Sequence | shrunken log2 fold change
RRIRKRPPRLPRPRPRPFPNPRP | 0.0546
RRIRKRPPRLPRPRPRPFQNPRP | -0.0235
RRIRKRPPRLPRPRPRPFTRPRP | 0.0464
RRIRKRPPRLPRPRPRPFWNPRP | -0.0468
RRIRKRPPRLPRPRPRPGAGPRP | 0.734
RRIRKRPPRLPRPRPRPGAMPRP | 0.639
RRIRKRPPRLPRPRPRPGCPPRP | 0.0566
RRIRKRPPRLPRPRPRPGDCPRP | 0.106
RRIRKRPPRLPRPRPRPGDLPRP | 0.273
RRIRKRPPRLPRPRPRPGEGPRP | 0.0997
RRIRKRPPRLPRPRPRPGFLPRP | 0.203
RRIRKRPPRLPRPRPRPGFNPRP | 0.0583
RRIRKRPPRLPRPRPRPGFRPRP | 0.942
RRIRKRPPRLPRPRPRPGFSPRP | 0.297
RRIRKRPPRLPRPRPRPGIHPRP | 0.149
RRIRKRPPRLPRPRPRPGIRPRP | 0.267
RRIRKRPPRLPRPRPRPGIWPRP | 0.362
RRIRKRPPRLPRPRPRPGLTPRP | 1.08
RRIRKRPPRLPRPRPRPGMEPRP | 0.0527
RRIRKRPPRLPRPRPRPGMRPRP | 0.926
RRIRKRPPRLPRPRPRPGNGPRP | 0.351
RRIRKRPPRLPRPRPRPGPCPRP | 0.393
RRIRKRPPRLPRPRPRPGPFPRP | 0.56
RRIRKRPPRLPRPRPRPGPLPRP | 0.578
RRIRKRPPRLPRPRPRPGPPPRP | 0.922

Sequence | shrunken log2 fold change
RRIRKRPPRLPRPRPRPGQCPRP | 0.0394
RRIRKRPPRLPRPRPRPGQKPRP | 0.212
RRIRKRPPRLPRPRPRPGQLPRP | 0.236
RRIRKRPPRLPRPRPRPGSFPRP | 0.133
RRIRKRPPRLPRPRPRPGTTPRP | 0.157
RRIRKRPPRLPRPRPRPGVFPRP | 0.417
RRIRKRPPRLPRPRPRPGVWPRP | 0.786
RRIRKRPPRLPRPRPRPGVYPRP | 2.46
RRIRKRPPRLPRPRPRPGWEPRP | -0.00146
RRIRKRPPRLPRPRPRPGWFPRP | 0.139
RRIRKRPPRLPRPRPRPHASPRP | 0.073
RRIRKRPPRLPRPRPRPHCSPRP | 0.063
RRIRKRPPRLPRPRPRPHDHPRP | -0.162
RRIRKRPPRLPRPRPRPHDMPRP | 0.0328
RRIRKRPPRLPRPRPRPHEAPRP | -0.022
RRIRKRPPRLPRPRPRPHELPRP | 0.509
RRIRKRPPRLPRPRPRPHERPRP | 0.231
RRIRKRPPRLPRPRPRPHFKPRP | -0.0252
RRIRKRPPRLPRPRPRPHFTPRP | -0.0881
RRIRKRPPRLPRPRPRPHHEPRP | -0.0045
RRIRKRPPRLPRPRPRPHHRPRP | -0.0531
RRIRKRPPRLPRPRPRPHLTPRP | 0.055
RRIRKRPPRLPRPRPRPHMYPRP | -0.131
RRIRKRPPRLPRPRPRPHNMPRP | -0.438
RRIRKRPPRLPRPRPRPHNNPRP | -0.244

Sequence | shrunken log2 fold change
RRIRKRPPRLPRPRPRPHNSPRP | -0.24
RRIRKRPPRLPRPRPRPHNVPRP | -0.097
RRIRKRPPRLPRPRPRPHPFPRP | 0.188
RRIRKRPPRLPRPRPRPHPIPRP | 0.0828
RRIRKRPPRLPRPRPRPHPLPRP | 0.393
RRIRKRPPRLPRPRPRPHQIPRP | 0.0638
RRIRKRPPRLPRPRPRPHQVPRP | -0.182
RRIRKRPPRLPRPRPRPHRMPRP | -0.0995
RRIRKRPPRLPRPRPRPHRVPRP | 0.34
RRIRKRPPRLPRPRPRPHSSPRP | 0.0945
RRIRKRPPRLPRPRPRPHTGPRP | -0.0786
RRIRKRPPRLPRPRPRPHTPPRP | 0.0819
RRIRKRPPRLPRPRPRPHVTPRP | -0.0241
RRIRKRPPRLPRPRPRPHWGPRP | 0.209
RRIRKRPPRLPRPRPRPIADPRP | -0.125
RRIRKRPPRLPRPRPRPICFPRP | 0.272
RRIRKRPPRLPRPRPRPICMPRP | 0.0199
RRIRKRPPRLPRPRPRPIDYPRP | -0.0337
RRIRKRPPRLPRPRPRPIENPRP | -0.0721
RRIRKRPPRLPRPRPRPIEPPRP | 0.0245
RRIRKRPPRLPRPRPRPIEQPRP | -0.0195
RRIRKRPPRLPRPRPRPIEWPRP | 0.404
RRIRKRPPRLPRPRPRPIIVPRP | 0.0373
RRIRKRPPRLPRPRPRPIKVPRP | -0.386
RRIRKRPPRLPRPRPRPIMIPRP | -0.0532

Sequence | shrunken log2 fold change
RRIRKRPPRLPRPRPRPIMLPRP | 0.0564
RRIRKRPPRLPRPRPRPINEPRP | -0.215
RRIRKRPPRLPRPRPRPINIPRP | -0.0728
RRIRKRPPRLPRPRPRPINLPRP | -0.00204
RRIRKRPPRLPRPRPRPINNPRP | -0.298
RRIRKRPPRLPRPRPRPIPIPRP | 0.136
RRIRKRPPRLPRPRPRPIQKPRP | 0.0671
RRIRKRPPRLPRPRPRPIQTPRP | 0.0355
RRIRKRPPRLPRPRPRPIRFPRP | -0.186
RRIRKRPPRLPRPRPRPIRPPRP | 0.012
RRIRKRPPRLPRPRPRPISEPRP | 0.213
RRIRKRPPRLPRPRPRPIVLPRP | -0.299
RRIRKRPPRLPRPRPRPIVWPRP | 0.527
RRIRKRPPRLPRPRPRPIWEPRP | 0.295
RRIRKRPPRLPRPRPRPIWGPRP | -0.0432
RRIRKRPPRLPRPRPRPIWMPRP | -0.0467
RRIRKRPPRLPRPRPRPIWVPRP | 0.00396
RRIRKRPPRLPRPRPRPIYCPRP | -0.0201
RRIRKRPPRLPRPRPRPIYIPRP | -0.127
RRIRKRPPRLPRPRPRPIYWPRP | 0.165
RRIRKRPPRLPRPRPRPKASPRP | 0.0517
RRIRKRPPRLPRPRPRPKDGPRP | 0.0893
RRIRKRPPRLPRPRPRPKDIPRP | -0.261
RRIRKRPPRLPRPRPRPKFNPRP | -0.0876
RRIRKRPPRLPRPRPRPKGHPRP | 0.123

Sequence | shrunken log2 fold change
RRIRKRPPRLPRPRPRPKICPRP | 0.0599
RRIRKRPPRLPRPRPRPKIKPRP | 0.447
RRIRKRPPRLPRPRPRPKITPRP | 0.0975
RRIRKRPPRLPRPRPRPKIYPRP | -0.0249
RRIRKRPPRLPRPRPRPKLCPRP | 0.515
RRIRKRPPRLPRPRPRPKLLPRP | -0.158
RRIRKRPPRLPRPRPRPKMPPRP | 0.0535
RRIRKRPPRLPRPRPRPKNIPRP | -0.253
RRIRKRPPRLPRPRPRPKPTPRP | 0.7
RRIRKRPPRLPRPRPRPKQAPRP | 0.00509
RRIRKRPPRLPRPRPRPKQTPRP | 0.00774
RRIRKRPPRLPRPRPRPKRPPRP | 0.552
RRIRKRPPRLPRPRPRPKRVPRP | 0.717
RRIRKRPPRLPRPRPRPKSHPRP | 0.0104
RRIRKRPPRLPRPRPRPKSVPRP | 0.451
RRIRKRPPRLPRPRPRPKTPPRP | 0.477
RRIRKRPPRLPRPRPRPKVKPRP | 0.116
RRIRKRPPRLPRPRPRPKVVPRP | 0.223
RRIRKRPPRLPRPRPRPKVYPRP | -0.124
RRIRKRPPRLPRPRPRPKWKPRP | 0.479
RRIRKRPPRLPRPRPRPKYAPRP | 0.208
RRIRKRPPRLPRPRPRPKYPPRP | 0.0162
RRIRKRPPRLPRPRPRPLCWPRP | 0.52
RRIRKRPPRLPRPRPRPLEKPRP | 0.219
RRIRKRPPRLPRPRPRPLFIPRP | -0.291

Sequence | shrunken log2 fold change
RRIRKRPPRLPRPRPRPLGKPRP | 0.39
RRIRKRPPRLPRPRPRPLGRPRP | 1.35
RRIRKRPPRLPRPRPRPLHIPRP | -0.172
RRIRKRPPRLPRPRPRPLHQPRP | 0.393
RRIRKRPPRLPRPRPRPLIMPRP | -0.376
RRIRKRPPRLPRPRPRPLKEPRP | 0.0921
RRIRKRPPRLPRPRPRPLMHPRP | 0.0704
RRIRKRPPRLPRPRPRPLNVPRP | 0.252
RRIRKRPPRLPRPRPRPLPLPRP | 0.387
RRIRKRPPRLPRPRPRPLPWPRP | 0.814
RRIRKRPPRLPRPRPRPLQFPRP | -0.076
RRIRKRPPRLPRPRPRPLVWPRP | 0.298
RRIRKRPPRLPRPRPRPLWRPRP | 0.609
RRIRKRPPRLPRPRPRPLYTPRP | -0.288
RRIRKRPPRLPRPRPRPLYVPRP | 0.0738
RRIRKRPPRLPRPRPRPMAFPRP | 0.25
RRIRKRPPRLPRPRPRPMAMPRP | 0.325
RRIRKRPPRLPRPRPRPMCQPRP | -0.0286
RRIRKRPPRLPRPRPRPMDNPRP | 0.103
RRIRKRPPRLPRPRPRPMEEPRP | 0.371
RRIRKRPPRLPRPRPRPMEPPRP | 0.0318
RRIRKRPPRLPRPRPRPMFAPRP | 0.485
RRIRKRPPRLPRPRPRPMFGPRP | 0.112
RRIRKRPPRLPRPRPRPMFIPRP | -0.0367
RRIRKRPPRLPRPRPRPMFQPRP | -0.0168
